From IntAct's records for PubMed 28864920

B1: DNA repair protein RAD51 homolog 3 (Homo sapiens), O43502 (parent)
chain: MRGKTFRFEMQRDLVSFPLSPAVRVKLVSAGFQTAEELLEVKPSELSKEVGISKAEALETLQIIRRECLTNKPRYAGTSESHKKCTALELLEQEHTQGFIITFCSALDDILGGGVPLMKTTEICGAPGVGKTQLCMQLAVDVQIPECFGGVAGEAVFIDTEGSFMVDRVVDLATACIQHLQLIAEKHKGEEHRKALEDFTLDNILSHIYYFRCRDYTELLAQVYLLPDFLSEHSKVRLVIVDGIAFPFRHDLDDLSLRTRLLNGLAQQMISLANNHRLAVILTNQMTTKIDRNQALLVPALGESWGHAATIRLIFHWDRKQRLATLYKSPSQKECTVLFQIKPQGFRDTVVTSACSLQTEGSLSTRKRSRDPEEEL
partner: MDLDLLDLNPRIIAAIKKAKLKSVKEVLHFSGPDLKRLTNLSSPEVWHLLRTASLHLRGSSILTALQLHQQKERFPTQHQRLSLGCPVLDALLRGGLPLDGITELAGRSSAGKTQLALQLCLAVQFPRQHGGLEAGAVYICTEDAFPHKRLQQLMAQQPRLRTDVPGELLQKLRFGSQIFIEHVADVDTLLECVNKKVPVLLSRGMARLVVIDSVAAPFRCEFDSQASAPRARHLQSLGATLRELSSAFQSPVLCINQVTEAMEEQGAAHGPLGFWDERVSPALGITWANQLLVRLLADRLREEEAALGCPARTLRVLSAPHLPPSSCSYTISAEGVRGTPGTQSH
B2: DNA repair protein RAD51 homolog 1 (Homo sapiens), Q06609 (parent)
chain: MAMQMQLEANADTSVEEESFGPQPISRLEQCGINANDVKKLEEAGFHTVEAVAYAPKKELINIKGISEAKADKILAEAAKLVPMGFTTATEFHQRRSEIIQITTGSKELDKLLQGGIETGSITEMFGEFRTGKTQICHTLAVTCQLPIDRGGGEGKAMYIDTEGTFRPERLLAVAERYGLSGSDVLDNVAYARAFNTDHQTQLLYQASAMMVESRYALLIVDSATALYRTDYSGRGELSARQMHLARFLRMLLRLADEFGVAVVITNQVVAQVDGAAMFAADPKKPIGGNIIAHASTTRLYLRKGRGETRICKIYDSPCLPEAEAMFAINADGVGDAKD
partner: B1 partner
B3: DNA repair protein RAD51 homolog 3 (Homo sapiens), O43502 (parent)
chain: B1 chain
partner: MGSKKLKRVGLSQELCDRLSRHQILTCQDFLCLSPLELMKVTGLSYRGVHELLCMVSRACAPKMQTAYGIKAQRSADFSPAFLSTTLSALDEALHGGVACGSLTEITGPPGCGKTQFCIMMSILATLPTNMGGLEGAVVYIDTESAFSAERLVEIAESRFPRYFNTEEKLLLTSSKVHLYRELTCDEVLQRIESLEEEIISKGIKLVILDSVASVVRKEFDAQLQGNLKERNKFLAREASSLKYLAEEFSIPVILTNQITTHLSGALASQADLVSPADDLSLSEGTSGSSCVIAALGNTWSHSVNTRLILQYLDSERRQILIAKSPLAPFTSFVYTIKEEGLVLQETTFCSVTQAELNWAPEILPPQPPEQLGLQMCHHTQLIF
B4: DNA repair protein XRCC3 (Homo sapiens), O43542 (parent)
chain: B1 partner
B5: DNA repair protein XRCC3 (Homo sapiens), O43542 (parent)
chain: B1 partner
partner: B1 chain

Variants of: B1
Conditions: with xrcc3_human XRCC3, O43542

effect of a mutation on the interaction | Variant
disrupting interaction strength | C135R

Variants of: B2
Conditions: with xrcc3_human XRCC3, O43542

effect of a mutation on the interaction | Variant
with no effect | A55V
decreasing interaction strength | A79D

Variants of: B3
Conditions: with ra51b_human RAD51B

effect of a mutation on the interaction | Variant
disrupting interaction strength | C135R

Variants of: B4
Conditions: with rad51_human RAD51, Q06609

effect of a mutation on the interaction | Variant
disrupting interaction strength | L297P
disrupting interaction strength | V337E

Variants of: B5
Conditions: with ra51c_human RAD51C

effect of a mutation on the interaction | Variant
disrupting interaction strength | L297P
disrupting interaction strength | V337E
